According to publication PMC12802541:

Legend:
[1] = molecular target: Rabbit skeletal actin (rabbit) (UniProt P68135)
[2] = molecular target: Rabbit skeletal actin (rabbit) (UniProt P68135); assay: TIRF microscopy; 50 nM phosphorylated NM2 filaments added to anti-parallel actin arrays anchored by their barbed ends on patterned formin; MB150 (150 mM KCl, 5 mM MgCl2, 0.1 mM EGTA, 20 mM MOPS, pH 7.4), 1 mM ATP, 1 mM DTT, 0.6% methylcellulose, 30 °C

| Substance | fraction of tension sensor modules that are tensed (amplitude of the long lifetime component, global fit of FLIM) on patterned actin bundles [1] | dwell time (lifetime of attachment) [2] |
| --- | --- | --- |
| TsMod NM2A (non-muscle myosin 2A with an embedded FRET-based tension sensor module), RLC phosphorylated (from UniProt P35579 1-1960; P60660 1-151; O14950 1-172) (complex) | 80% | – |
| Non-muscle myosin 2B, Halo-tagged, phosphorylated, pre-polymerized filaments (from UniProt P35580 1-1976; P60660 1-151; O14950 1-172) (complex) | – | > 15 min |
